Consider eight molecules from patent US20260116991A1 (HAINAN SIMCERE ZAIMING PHARMACEUTICAL, published 2026).

In experiment [1] the target is T1, GPC3 endogenously expressed on HepG2 cells (UniProt P51654 25-554).
T1 construct: whole, on cells
In words: FACS on HepG2 cells.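 Note: flow cytometric binding of chimeric antibodies to cells, read as mean fluorescence intensity, EC50 obtained by curve fitting of the MFI data.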
Method: (§1) The desired cells were expanded to a logarithmic growth phase in a T-75 cell culture flask, the medium was removed by pipetting, and the cells were washed twice with a PBS buffer, and digested with trypsin. Then a complete medium was added to stop the digestion, and the cells were blown into a single cell suspension. After counting, the cells were centrifuged, and the cell pellet was resuspended with an FACS buffer (PBS+2% fetal bovine serum) to 2×10⁶ cells/mL. The cell resuspension solution was added to a 96-well FACS reaction plate at 50 μl/well, and a chimeric antibody sample to be tested was added at 50 μl/well for incubation at 4° C. for 1 h. […] After the plate was centrifuged and washed 3 times with a PBS buffer, 100 μl of the resulting solution was assayed and analyzed by FACS (FACS Canto™, purchased from BD Biosciences). Data analysis was performed by software (FlowJo) to obtain the mean fluorescence intensity (MFI) of the cells. Then, analysis was performed by software (GraphPad Prism8), data were fitted, and EC₅₀ values were calculated.

In experiment [2] the target is T2, human GPC3 on CHO-K1-human GPC3 cells (clone CHOK1-hGPC3.2B5) (human, UniProt P51654 25-554).
T2 construct: whole, on cells; Stably transfected CHO-K1 clone 2B5
Nature of the experiment: FACS on CHOK1-hGPC3.2B5 cells.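 Note: flow cytometry binding of chimeric antibodies to the cells, read out as mean fluorescence intensity, with the half-maximal concentration derived by curve fitting.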
Method: as §1

Experiment [3] has as its target T3, human GPC3-His protein (human, UniProt P51654 25-559).
T3 construct: Bought protein; also called human GPC3 protein; not shown: His tag
In words: ELISA, coated human GPC3, antibody 1 nM.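 Note: antigen coated at 1 µg/mL on 96-well plates, antibody bound for 2 h at 37 °C, detected with HRP-labeled secondary antibody and TMB, absorbance read at 450 nm.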

For experiment [4], the target named is T3, human GPC3-His protein. Nature of the experiment: ELISA, coated human GPC3, antibody 10 nM.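 Note: plate coated with antigen at 1 µg/mL, antibodies bound 2 h at 37 °C, detected via HRP-conjugated secondary antibody and TMB substrate, absorbance read after acid stop.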 In general terms: ELISA stands for enzyme-linked immunosorbent assay.
Method: (§2) The specific method is described as follows: The antigen protein was diluted with PBS to a final concentration of 1 μg/mL, and the diluent was added to a 96-well ELISA plate at 50 μL/well. The plate was sealed with a plastic film and incubated at 4° C. overnight, washed twice with PBS the next day, and a blocking solution [PBS+2% (w/w) BSA] was added for blocking at room temperature for 2 h. […] After incubation at 37° C. for 2 h, the plate was washed 3 times with PBS. A horseradish peroxidase (HRP)-labeled secondary antibody (purchased from Merck, Cat. No. AP113P) was added for incubation at 37° C. for 1 h, and the plate was washed 5 times with PBS. A TMB substrate was added at 50 μL/well for incubation at room temperature for 10 min, then a stop solution (1.0M HCl) was added at 50 μL/well. An ELISA plate reader (Multimode Plate Reader, EnSight, purchased from Perkin Elmer) was used to read OD_{450 nm} values, with results as shown in Table 4 to Table 6, FIG. 1A, FIG. 1B, and FIG. 1C.
Experiment [5] has as its target T3, human GPC3-His protein. In words: ELISA, coated human GPC3, antibody 0.1 nM.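 Note: antigen coated on 96-well plates at 1 µg/mL, antibody bound 2 h at 37 °C, detected with HRP-labeled secondary antibody and TMB substrate, acid-stopped.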
Method: as §2
In experiment [6] the target is T3, human GPC3-His protein. Nature of the experiment: ELISA, coated human GPC3, antibody 100 nM.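 Note: antibodies bound to antigen-coated 96-well plates (1 µg/mL), 2 h at 37 °C, detected with HRP-labelled secondary antibody and TMB substrate, absorbance read at 450 nm.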
Method: as §2
The target of experiment [7] is T3, human GPC3-His protein. In words: ELISA, coated human GPC3, antibody 0.01 nM.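 Note: Plate-bound antigen coated at 1 µg/mL, antibody incubated 2 h at 37 °C, binding detected by HRP-conjugated secondary antibody with TMB substrate, read as absorbance at 450 nm.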
Method: as §2
For experiment [8], the target named is T3, human GPC3-His protein. Nature of the experiment: ELISA, coated human GPC3, antibody 0.001 nM.
The target in experiment [9] is T3, human GPC3-His protein. Nature of the experiment: ELISA, coated human GPC3, antibody 0.0001 nM.

B1: F1.153.1 human-murine chimeric antibody (antibody, human IgG1, kappa, V domains shown)
VH: QIQLVQSGPELKKPGETVKISCKASGYTFTTAGMQWVQKMPGKGFKWIGWINTHSGEPQYAEDFKGRFAFSLETSASTAYLQISNLKNEDTATYFCARSFYYHGSSFFYFDYWGQGTTLTVSS
VL: DIVMTQSQKFMSTTVGDRVSITCKASQNVGTAVAWYQQKPGQSPKLLIYSASNRYTGVPDRFTGSGSGADFTLTISNMQSEDLADYFCQQYSRYPLTFGAGTKLELKR
B1: the figures for the EC50 in [1] and in experiment [2] were 1.3 nM and 0.91 nM, respectively. Besides, the figures for the “Max MFI” value in experiment [1] and in experiment [2] were 4100 MFI and 3080 MFI, respectively. Further, the OD450 nm in the experiment with human GPC3-His protein [3] was 1.56 OD450; with human GPC3-His protein [4], 1.85 OD450; in the experiment with human GPC3-His protein [5], 0.64 OD450; with human GPC3-His protein [6], 2.06 OD450; in the experiment with human GPC3-His protein [7] it was 0.15 OD450; with human GPC3-His protein [8] it was 0.1 OD450. In the experiment with human GPC3-His protein [9], this molecule returned an OD450 nm of 0.11 OD450.

B2: F1.62.9 human-murine chimeric antibody (antibody, human IgG1, kappa, V domains shown)
VH: QVQLQQSDAELVKPGASVKISCKVSGYIFTDHTIHWMKQRPEQGLEWIGYIYPRDGSIKYNENFKGKATLTADKSSSATYMQLNSLTSEDSAVYFCARPIYYDYAYYFDYWGQGTTLTVSS
VL: DVVMTQSPLSLPVSLGDQASISCRSRQSLVHSNGNTYLHWYLQKPGQSPKVLIYKVSNRFSGVPDRFSGSGSGTDFTLKISRVEAEDLGVYFCSQSTHVPYTFGGGTKLEIKR
For B2, the EC50 amounted to 1.32 nM in experiment [1] and 3.49 nM in experiment [2]. The “Max MFI” value in experiment [1] worked out at 3250 MFI; in experiment [2], 2160 MFI. For the same molecule, the OD450 nm with human GPC3-His protein [3] is 0.63 OD450; with human GPC3-His protein [4], 0.96 OD450; in the experiment with human GPC3-His protein [5] it was 0.2 OD450; with human GPC3-His protein [6], 1.09 OD450; with human GPC3-His protein [7], 0.1 OD450; in the experiment with human GPC3-His protein [8], 0.09 OD450. In addition, the OD450 nm with human GPC3-His protein [9] worked out at 0.11 OD450.

B3: F2.39.2 human-murine chimeric antibody (antibody, human IgG1, kappa, V domains shown)
VH: QVQLQQSGAELVRPGASVKVSCKASGYTFTDYEMHWMKQTPVHGLEWIGANEPETGRSAYDQKFKGKATLTADKSSSTAYMELRSLTSEDSAVYYCTRFYSFAYWGQGTLVTVSA
VL: DVVMTQTPLSLPVSLGDQASISCRSSQGLVHNNGNTYLHWYLQKPGQSPKLLIYKVSNRFSGVPDRFSGSGSGTDFTLKISRVEAEDLGVYFCSQNTHVPPTFGGGTKLEIKR
As for B3, the results for the EC50 in experiment [1] and in experiment [2] were 0.95 nM and 1 nM, respectively. Further, the “Max MFI” value in [1] is 12700 MFI; in experiment [2], 26500 MFI. The OD450 nm is 2.21 OD450 with human GPC3-His protein [3]; 2.34 OD450 in the experiment with human GPC3-His protein [4]; 1.33 OD450 with human GPC3-His protein [5]; 2.3 OD450 with human GPC3-His protein [6]; 0.34 OD450 with human GPC3-His protein [7]; 0.12 OD450 in the experiment with human GPC3-His protein [8]. For the same molecule, in the experiment with human GPC3-His protein [9], the OD450 nm is 0.1 OD450.

B4: F2.23.8 human-murine chimeric antibody (antibody, human IgG1, kappa, V domains shown)
VH: QVQLQQSGAELVRPGASVKLSCKASGYTFTDYEMHWVKQTPVHGLEWFGAIDPETGGTAYNQKFRAKATLTADKSSSTAYMELRSLTSEDSAVYYCTRFYSFAYWGQGTLVTVSA
VL: DVVMTQTPLSLPVSLGDQASISCRSSQSLVHSNGNTYLQWYLQKPGQSPKLLIYKVSNRFSGVPDRFSGSGSGTDFTLKITRVEAEDLGVYFCSQSTHVPYTFGSGTKLEIKR
In the case of B4, the EC50 came to 1.64 nM in experiment [1] and 1.48 nM in experiment [2]. The “Max MFI” value stood at 11300 MFI in [1] and 23200 MFI in experiment [2]. The OD450 nm with human GPC3-His protein [3] was 2.16 OD450; in the experiment with human GPC3-His protein [4], 2.35 OD450; with human GPC3-His protein [5], 1.28 OD450; with human GPC3-His protein [6] it was 2.51 OD450; with human GPC3-His protein [7], 0.29 OD450; with human GPC3-His protein [8] it was 0.12 OD450. In the experiment with human GPC3-His protein [9], this molecule displayed an OD450 nm of 0.1 OD450.

B5: F1.9.19 human-murine chimeric antibody (antibody, human IgG1, kappa, V domains shown)
VH: DVQLQESGPGLVKPSQSLSLTCSVTGYSITSGYYWNWIRQFPGNRLEWMAYISYDGINNYNPSLKNRISIARDTSTNQFFLKLNSVTSEDTATYYCATTTEVALFDHWGQGTTLTVSS
VL: DVLLTQTPLSLPVSLGDQASISCRSSQNIVHGNGNTYLEWFLQKPGQSPKLLIYKVSNRFSGVPDRFSGSGSGTDFTLKISRVEAEDLGLYYCFQASHVPWTFGGGTKLEIKR
Consider B5, for which the results for the EC50 in experiment [1] and in experiment [2] were 1.12 nM and 1.76 nM, respectively. For the same molecule, the entries for the “Max MFI” value in experiment [1] and in experiment [2] were 3780 MFI and 2700 MFI, respectively. In addition, the OD450 nm is 1.6 OD450 with human GPC3-His protein [3]; 1.85 OD450 with human GPC3-His protein [4]; 0.58 OD450 with human GPC3-His protein [5]; 1.88 OD450 with human GPC3-His protein [6]; 0.16 OD450 with human GPC3-His protein [7]; 0.11 OD450 with human GPC3-His protein [8]. For the same molecule, in the experiment with human GPC3-His protein [9], the OD450 nm was determined as 0.1 OD450.

B6: F2.154.1 human-murine chimeric antibody (antibody, human IgG1, kappa, V domains shown)
VH: QVQLQQSGAELVRPGASVKLSCKASGYRFTDYEMHWVKQTPVHGLEWIGTIDPETGNTAYTQKFMDKATLTADKSSSTAYMELRSLTSEDSAVYYCTRGYSFTYWGQGTLATVSA
VL: DVLMTQTPLSLPVSLGDQASISCRSSQNIVHSNGNTYLQWYLQKPGQSPKLLIFKVSNRFSGVPDRFSGSGSGTDFTLKISRVEAEDLGVYYCFQGSHVPFTFGTGTKLEIKR
Turning to B6, the EC50 was determined as 0.37 nM in [1] and 1.14 nM in experiment [2]. Moreover, the “Max MFI” value came to 5450 MFI in [1] and 26700 MFI in experiment [2]. The OD450 nm with human GPC3-His protein [3] came out at 2.31 OD450; with human GPC3-His protein [4], 2.52 OD450; with human GPC3-His protein [5], 1.57 OD450; with human GPC3-His protein [6] it was 2.61 OD450; in the experiment with human GPC3-His protein [7], 0.38 OD450; with human GPC3-His protein [8] it was 0.13 OD450. Further, in the experiment with human GPC3-His protein [9], the OD450 nm stood at 0.09 OD450.

B7: F2.169.2 human-murine chimeric antibody (antibody, human IgG1, kappa, V domains shown)
VH: EVQLVETGGGLVQPKGSLKLSCAASGFSFNTNAMNWVRQAPGKGLEWVARIRSKSNNYATYYADSVKDRFTISRDDSQSMLYLQMNNLKTEDTAMYYCVRDGYYVLFAYWGQGTLVTVSA
VL: DVLMTQTPLSLPVSLGDQASISCRFSQSIVNSNGNTYLEWFLQKPGQSPKLLIYKVSNRFSGVPDRFSGSGSGTDFTLKISRVEAEDLGVYYCFQGSHVPFTFGTGTKLEIKR
For the molecule B7, the EC50 in experiment [1] is 0.65 nM; in [2], 1.06 nM. The “Max MFI” value in experiment [1] amounted to 3980 MFI; in [2], 17300 MFI. Also, the OD450 nm in the experiment with human GPC3-His protein [3] amounted to 2.24 OD450; with human GPC3-His protein [4], 2.52 OD450; with human GPC3-His protein [5], 1.25 OD450; with human GPC3-His protein [6] it was 2.43 OD450; with human GPC3-His protein [7] it was 0.27 OD450; in the experiment with human GPC3-His protein [8] it was 0.11 OD450. For the same molecule, the OD450 nm with human GPC3-His protein [9] was 0.1 OD450.

B8: F2.55.11 human-murine chimeric antibody (antibody, human IgG1, kappa, V domains shown)
VH: EVKLVESGGGLVKPGGSLKLSCAASGLTFSTCTMSWVRQTPAKRLEWVATISSGGGNTYYPDSVKGRFTISRDNARNTLYLQMSSLRSEDTAMYYCVRLYYDGSPYAMDYWGQGTSVTVSS
VL: DIQMTQTTSSLSASLGDRVTISCRASQDISNHLNWYQQKPDGTVKLLIYYTSRLHSGVPSRFSGSGSGTDYSLTISNLEQEDIATYFCQQDSKPPPTFGSGTKLEIKR
For the molecule B8, the EC50 amounted to 0.66 nM in experiment [1] and 0.89 nM in experiment [2]. Also, the “Max MFI” value in [1] was 1630 MFI; in experiment [2], 13600 MFI. The OD450 nm in the experiment with human GPC3-His protein [3] came to 2.24 OD450; with human GPC3-His protein [4], 2.66 OD450; in the experiment with human GPC3-His protein [5] it was 1.57 OD450; with human GPC3-His protein [6] it was 2.58 OD450; with human GPC3-His protein [7], 0.43 OD450; with human GPC3-His protein [8] it was 0.15 OD450. Besides, the OD450 nm in the experiment with human GPC3-His protein [9] is 0.11 OD450.

For orientation: EC50 means the midpoint of the concentration-response curve. Lower therefore signals an effect from little substance.
